# Data published in article PMC8495200.
# Tests used:
# Test in all cases: native gel or EMSA; Blue Native PAGE, purified recombinant non-tagged proteins in 1 x PBS, 1 mM DTT, 1 mM ATP; 4-16% Bis-Tris gels, cold room, Coomassie staining
# [1] = target: UBXD9^261–573, GST tag cleaved (D. discoideum)
# [2] = target: UBXD9^331–573, GST tag cleaved (D. discoideum)
# [3] = target: UBXD9^384–573, GST tag cleaved (D. discoideum)
substance,measurement,setting,value
"UBXD9^261–573, GST tag cleaved (domain or fragment)",stoichiometry N,[1],6
"UBXD9^331–573, GST tag cleaved (domain or fragment)",stoichiometry N,[2],6
"UBXD9^384–573, GST tag cleaved (domain or fragment)",stoichiometry N,[3],6
